The values that follow come from PMC3887213.

Common to all, as to assay: two-hybrid; quantitative YTH (Q-YTH): chlorophenol-red-β-D-galactopyranoside colour change at 540 nm, background (bait + empty pACT2) subtracted, normalised to wild-type RocCOR = 100%
The target of experiment [1] is LRRK2 RocCOR tandem domain R1441G (LexA-BD bait) (human) (UniProt Q5S007).
Experiment [2] concerns the target LRRK2 RocCOR tandem domain R1441H (LexA-BD bait) (human) (UniProt Q5S007).
The target of experiment [3] is LRRK2 RocCOR tandem domain R1441C (LexA-BD bait) (human) (UniProt Q5S007).
LRRK2 RocCOR tandem domain R1441C (LexA-BD bait) (human), sequence (Q5S007 whole entry R1441C, the tested form may be a part): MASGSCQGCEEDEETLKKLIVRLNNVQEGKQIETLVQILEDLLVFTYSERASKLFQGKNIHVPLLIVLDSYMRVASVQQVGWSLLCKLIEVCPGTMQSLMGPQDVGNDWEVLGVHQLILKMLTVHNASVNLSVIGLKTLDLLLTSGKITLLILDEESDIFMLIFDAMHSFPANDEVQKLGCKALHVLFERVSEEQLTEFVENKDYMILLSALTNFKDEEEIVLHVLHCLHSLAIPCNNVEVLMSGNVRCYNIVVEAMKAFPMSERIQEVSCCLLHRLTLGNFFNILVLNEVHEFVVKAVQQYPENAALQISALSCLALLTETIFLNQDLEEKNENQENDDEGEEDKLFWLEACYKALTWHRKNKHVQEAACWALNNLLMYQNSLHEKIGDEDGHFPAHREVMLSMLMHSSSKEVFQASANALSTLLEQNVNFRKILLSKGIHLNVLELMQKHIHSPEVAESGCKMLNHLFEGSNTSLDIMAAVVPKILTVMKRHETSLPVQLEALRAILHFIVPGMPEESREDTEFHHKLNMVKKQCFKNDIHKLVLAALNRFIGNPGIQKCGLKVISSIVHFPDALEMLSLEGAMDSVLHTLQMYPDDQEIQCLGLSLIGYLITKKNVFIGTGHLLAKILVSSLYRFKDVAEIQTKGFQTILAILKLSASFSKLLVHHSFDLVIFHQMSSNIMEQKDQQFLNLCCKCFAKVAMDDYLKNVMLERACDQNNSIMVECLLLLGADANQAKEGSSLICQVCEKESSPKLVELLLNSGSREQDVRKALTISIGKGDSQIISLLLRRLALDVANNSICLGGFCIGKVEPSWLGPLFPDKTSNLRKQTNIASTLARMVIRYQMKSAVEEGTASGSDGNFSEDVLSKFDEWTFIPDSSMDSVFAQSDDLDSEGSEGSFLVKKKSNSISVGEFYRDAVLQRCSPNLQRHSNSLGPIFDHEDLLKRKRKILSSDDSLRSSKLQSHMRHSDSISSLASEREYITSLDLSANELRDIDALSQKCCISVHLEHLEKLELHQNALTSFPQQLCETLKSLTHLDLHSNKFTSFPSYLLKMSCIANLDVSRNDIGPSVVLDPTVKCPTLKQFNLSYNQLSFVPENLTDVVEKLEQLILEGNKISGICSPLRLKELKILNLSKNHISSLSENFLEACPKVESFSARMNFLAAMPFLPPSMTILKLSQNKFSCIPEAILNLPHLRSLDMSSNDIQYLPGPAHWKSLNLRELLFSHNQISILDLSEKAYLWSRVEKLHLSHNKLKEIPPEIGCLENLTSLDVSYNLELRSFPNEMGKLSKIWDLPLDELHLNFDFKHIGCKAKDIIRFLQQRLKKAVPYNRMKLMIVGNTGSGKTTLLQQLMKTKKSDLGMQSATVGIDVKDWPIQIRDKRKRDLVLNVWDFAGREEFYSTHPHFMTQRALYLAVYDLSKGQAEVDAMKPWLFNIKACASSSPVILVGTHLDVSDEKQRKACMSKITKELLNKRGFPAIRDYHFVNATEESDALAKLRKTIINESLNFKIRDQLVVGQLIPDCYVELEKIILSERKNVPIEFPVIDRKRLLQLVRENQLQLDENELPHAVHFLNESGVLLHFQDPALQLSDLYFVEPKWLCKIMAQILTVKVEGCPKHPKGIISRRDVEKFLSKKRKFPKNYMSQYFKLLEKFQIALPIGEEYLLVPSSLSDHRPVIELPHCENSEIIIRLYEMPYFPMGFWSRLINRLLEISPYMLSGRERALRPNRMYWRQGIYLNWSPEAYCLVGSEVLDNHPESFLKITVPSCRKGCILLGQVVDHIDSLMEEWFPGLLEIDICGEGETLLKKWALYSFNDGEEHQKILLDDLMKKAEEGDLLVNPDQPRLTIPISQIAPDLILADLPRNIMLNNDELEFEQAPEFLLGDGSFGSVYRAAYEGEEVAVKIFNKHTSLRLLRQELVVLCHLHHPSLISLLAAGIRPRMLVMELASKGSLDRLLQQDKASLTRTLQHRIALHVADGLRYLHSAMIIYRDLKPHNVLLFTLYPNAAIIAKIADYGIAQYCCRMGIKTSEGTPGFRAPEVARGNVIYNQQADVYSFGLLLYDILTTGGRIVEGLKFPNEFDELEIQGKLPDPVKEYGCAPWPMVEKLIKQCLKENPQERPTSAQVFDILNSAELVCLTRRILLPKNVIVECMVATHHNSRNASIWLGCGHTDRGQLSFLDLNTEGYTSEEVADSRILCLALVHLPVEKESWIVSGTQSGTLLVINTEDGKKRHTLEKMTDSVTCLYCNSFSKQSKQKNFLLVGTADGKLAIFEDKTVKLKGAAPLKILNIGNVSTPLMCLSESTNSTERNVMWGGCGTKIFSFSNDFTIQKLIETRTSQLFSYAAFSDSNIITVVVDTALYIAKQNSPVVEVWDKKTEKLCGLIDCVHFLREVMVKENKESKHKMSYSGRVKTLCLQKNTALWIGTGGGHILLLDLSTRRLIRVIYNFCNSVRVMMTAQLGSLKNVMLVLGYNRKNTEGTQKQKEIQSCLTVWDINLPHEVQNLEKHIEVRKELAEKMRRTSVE

TUBB C terminus (Phe-317 to the stop codon), GAL4-AD prey, sequence (P07437 317-444): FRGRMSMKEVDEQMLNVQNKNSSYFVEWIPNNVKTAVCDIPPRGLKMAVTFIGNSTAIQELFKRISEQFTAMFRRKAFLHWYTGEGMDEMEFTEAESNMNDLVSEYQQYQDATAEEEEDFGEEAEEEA
TUBB4 C terminus (Phe-317 to Ala-444), GAL4-AD prey, sequence (P04350 317-444): as the sequence (P07437 317-444) above, with N16S, N19S, V49A, E117G, D119F, F120E, G121E, E123A, A124E, E127V counted along it
LRRK2 RocCOR tandem domain R1441H (LexA-BD bait) (human), sequence (Q5S007 whole entry R1441H, the tested form may be a part): as the sequence (Q5S007 whole entry R1441C, the tested form may be a part) above, with C1441H counted along it
LRRK2 RocCOR tandem domain R1441G (LexA-BD bait) (human), sequence (Q5S007 whole entry R1441G, the tested form may be a part): as the sequence (Q5S007 whole entry R1441C, the tested form may be a part) above, with C1441G counted along it

Turning to “TUBB4 C terminus (Phe-317 to Ala-444), GAL4-AD prey (from UniProt P04350 317-444) (domain or fragment)”, the percent reduction of the interaction against wild-type RocCOR (Q-YTH) was determined as 50% in experiment [1] and 25% in experiment [2]. Moreover, the percent increase of the interaction against wild-type RocCOR (Q-YTH) in experiment [3] came out at 25%.

Consider “TUBB C terminus (Phe-317 to the stop codon), GAL4-AD prey (from UniProt P07437 317-444) (domain or fragment)”, for which the percent reduction of the interaction against wild-type RocCOR (Q-YTH) in experiment [1] came out at 50%; in experiment [2], 25%. For the same substance, the percent increase of the interaction against wild-type RocCOR (Q-YTH) in experiment [3] stood at 25%.
